One molecule from patent US20040204348A1 can be followed below.

The target of the test is recombinant soluble uPAR (suPAR), Q03405. Put plainly: SPR (Biacore 3000), competition with scuPA. The note with it: remark: other sources report otherwise. A general note: Surface plasmon resonance follows binding to a sensor surface in real time, without labels.

Bridges are numbered along the chain shown (N, C = ends). L15 (R1 : phenyl) = linker L15: -CO-CH2-NH-CO-CH2-CH2-CH(CO-NH-CH2-CO-NH-R1)-NH- with R1 = phenyl (anilide)

Sequence of recombinant soluble uPAR (suPAR), Q03405 (Q03405 23-299 limits assumed): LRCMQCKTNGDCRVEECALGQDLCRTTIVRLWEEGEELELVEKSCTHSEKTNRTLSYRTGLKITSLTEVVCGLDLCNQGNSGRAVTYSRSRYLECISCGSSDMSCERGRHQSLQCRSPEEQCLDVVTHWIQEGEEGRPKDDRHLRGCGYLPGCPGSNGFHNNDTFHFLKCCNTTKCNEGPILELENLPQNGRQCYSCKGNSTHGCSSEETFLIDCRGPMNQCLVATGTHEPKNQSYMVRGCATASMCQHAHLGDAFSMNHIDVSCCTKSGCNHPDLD

B1: Å36 (peptide)
peptide: VSNKYFSNIHW
modifications: linker N-C via L15 (R1 : phenyl); also: cyclised by linker L15 between X1 N and X11 carbonyl
B1: the Kd – broadly, the constant that tells how readily two partners part at equilibrium – came to 4 nM.
